T1: human podoplanin (human, UniProt Q86YL7 23-162)
T1 construct: whole, on cells; also called Aggrus
T1 sequence (looked up): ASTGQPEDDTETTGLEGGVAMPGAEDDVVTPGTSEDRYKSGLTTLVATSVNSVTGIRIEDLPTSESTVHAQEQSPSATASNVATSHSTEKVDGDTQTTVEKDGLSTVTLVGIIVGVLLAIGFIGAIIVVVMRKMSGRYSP


Columns and labels:
human podoplanin [1] = molecular target: T1, human podoplanin; assay: flow cytometry on H2052 mesothelioma cells, 10 ug/ml antibody
Experimental: Meanwhile, the expression of podoplanin in the mesothelioma cells was confirmed by flow cytometry. Specifically, the cells were reacted with NZ-1 antibodies (10 μg/ml) at 4° C. for 30 minutes, and further reacted with anti-rat IgG-FITC antibodies at 4° C. for 30 minutes. Fluorescence intensity was measured by FACSCalibur (BD).

human podoplanin [2] = molecular target: T1, human podoplanin; assay: flow cytometry on H226 and LN319 cells, 10 ug/ml antibody
Experimental: First, NZ-1 antibodies, mouse chimera-type NZ-1 antibodies, and human chimera-type NZ-1 antibodies (10 μg/ml) were reacted at 4° C. for 30 minutes with human malignant mesothelioma cells (H226) and human glioma cells (LN319) which expressed human podoplanin. In addition, anti-rat IgG-FITC antibodies, anti-mouse IgG-FITC antibodies, and anti-human IgG-FITC antibodies were respectively reacted at 4° C. for 30 minutes. The fluorescence intensity was measured by FACSCalibur (BD).

Row | binding result (human podoplanin [1]) | binding result (human podoplanin [2]) | Binder
1 | binds |  | rat NZ-1 antibody (antibody, Rat monoclonal antibody from the NZ-1 hybridoma; also called rat monoclonal antibody NZ-1) heavy: EVQLVESGGGLVQPGRSLKLSCAASGFTFSNYGMAWVRQTPTKGLEWIASISAGGDKTYYGDSVKGRFSISRDNAKTTHYLQMDSLRSEDTATYYCAKTSRVYFDYWGQGVMVTVSSAETTAPSVYPLAPGTALKSNSMVTLGCLVKGYFPEPVTVTWNSGALSSGVHTFPAVLQSGLYTLTSSVTVPSSTWSSQAVTCNVAHPASSTKVDKKIVPRECNPCGCTGSEVSSVFIFPPKTKDVLTITLTPKVTCVVVDISQNDPEVRFSWFIDDVEVHTAQTHAPEKQSNSTLRSVSELPIVHRDWLNGKTFKCKVNSGAFPAPIEKSISKPEGTPRGPQVYTMAPPKEEMTQSQVSITCMVKGFYPPDIYTEWKMNGQPQENYKNTPPTMDTDGSYFLYSKLNVKKETWQQGNTFTCSVLHEGLHNHHTEKSLSHSPGK light: QFVLTQPNSVSTNLGSTVKLSCKRSTGNIGSNYVNWYQQHEGRSPTTMIYRDDKRPDGVPDRFSGSIDRSSNSALLTINNVQTEDEADYFCHSYSSGIVFGGGTKLTVLGQPKSTPTLTVFPPSTEELQGNKATLVCLISDFYPSDVEVAWKANGAPISQGVDTANPTKQGNKYIASSFLRLTAEQWRSRNSFTCQVTHEGNTVEKSLSPAECV
2 |  | binds | mouse chimera-type NZ-1 antibody (antibody, Heavy chain is the VH and CH1 of rat NZ-1 joined to the hinge, CH2 and CH3 of mouse IgG2a; Light chain is the rat NZ-1 L chain; also called mouse chimeric antibody; mouse chimera-type antibody) heavy: EVQLVESGGGLVQPGRSLKLSCAASGFTFSNYGMAWVRQTPTKGLEWIASISAGGDKTYYGDSVKGRFSISRDNAKTTHYLQMDSLRSEDTATYYCAKTSRVYFDYWGQGVMVTVSSAETTAPSVYPLAPGTALKSNSMVTLGCLVKGYFPEPVTVTWNSGALSSGVHTFPAVLQSGLYTLTSSVTVPSSTWSSQAVTCNVAHPASSTKVDKKIVPRRSPPLKECPPCAAPDLLGGPSVFIFPPKIKDVLMISLSPMVTCVVVDVSEDDPDVQISWFVNNVEVHTAQTQTHREDYNSTLRVVSALPIQHQDWMSGKEFKCKVNNRALPSPIEKTISKPRGPVRAPQVYVLPPPAEEMTKKEFSLTCMITGFLPAEIAVDWTSNGRTEQNYKNTATVLDSDGSYFMYSKLRVQKSTWERGSLFACSVVHEGLHNHLTTKTISRSLGK light: QFVLTQPNSVSTNLGSTVKLSCKRSTGNIGSNYVNWYQQHEGRSPTTMIYRDDKRPDGVPDRFSGSIDRSSNSALLTINNVQTEDEADYFCHSYSSGIVFGGGTKLTVLGQPKSTPTLTVFPPSTEELQGNKATLVCLISDFYPSDVEVAWKANGAPISQGVDTANPTKQGNKYIASSFLRLTAEQWRSRNSFTCQVTHEGNTVEKSLSPAECV
3 |  | binds | human chimera-type NZ-1 antibody (antibody, Heavy chain is the VH of rat NZ-1 joined to the CH1, hinge, CH2 and CH3 of human IgG1; also called human chimeric antibody; human chimera-type antibody) heavy: not shown light: QFVLTQPNSVSTNLGSTVKLSCKRSTGNIGSNYVNWYQQHEGRSPTTMIYRDDKRPDGVPDRFSGSIDRSSNSALLTINNVQTEDEADYFCHSYSSGIVFGGGTKLTVLGQPKGIRTVAAPSVFIFPPSDEQLKSGTASVVCLLNNFYPREAKVQWKVDNALQSGNSQESVTEQDSKDSTYSLSSTLTLSKADYEKHKVYACEVTHQGLSSPVTKSFNRGEC

Reference: patent US20120308571A1 (FUJIFILM RI PHARMA, published 2012)
